Here are results for nine molecules from patent US20230126400A1 (Alector, published 2023).

The target in test [1] is T1, human MS4A4A ECL1 peptide (amino acid residues 86-98) (human).
T1 construct: synthetic peptide
T1 peptide: CMASNTYGSNPIS
Kind of test: peptide ELISA. The procedure: (§1) Briefly, 96-well polystyrene plates were coated with 2 or 10 m/ml of synthetic free or BSA-conjugated peptides in coating buffer (0.05M carbonate buffer, pH9.6, Millipore Sigma Cat#C3041) overnight at 4° C. Coated plates were then blocked with ELISA diluent (PBS+0.5% BSA+0.05% Tween20) for 1-hour, washed 3×300 μL in PBST (PBS+0.05% Tween20, Thermo Cat#28352), and then the antibodies were added to the plate (50 μl/well). After 30 mins incubation (room temperature, with shaking), the plates were washed 3×300 μL in PBST. […] After a final set of washes (3×300 μL in PBST), 50 μL of TMB substrate (BioFx Cat#TMBW-1000-01) was added and the reaction was then quenched after 5-10 mins with 50 μL of stop solution (BioFx Cat#BSTP-1000-01). The quenched reaction wells were detected for absorbance at 650nm with a BioTek Synergy Microplate Reader using GENS 2.04 software.

Test [2] addresses T2, human MS4A4A ECL2 peptide (amino acid residues 159-179), free (human).
T2 construct: synthetic peptide; also called huMS4A4A-ELC2 free-peptide
T2 peptide: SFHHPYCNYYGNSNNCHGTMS
Kind of test: peptide ELISA. The procedure: as §1

The target of test [3] is T3, human MS4A6A ECL1 peptide (amino acid residues 68-85) (human).
T3 peptide: SASFSPNFTQVTSTLLNS
Kind of test: array SPR. The procedure:
(§2) Binding kinetic characterization of the anti-MS4A4A antibodies to MS4A4A ECL1 and ECL2 and to MS4A6A ECL1 and ECL2 peptides was performed by Carterra (South San Francisco, Calif.) using a proprietary array Surface Plasmon Resonance (SPR) instrument (MX-96) as follows. Antibodies were captured onto a CMD500D chip (Xantec # SPMX CMD500D) using the Continous Flow Microspotter (CFM). First, the chip was activated with 100 mM MES pH 5.5, 100 μL EDC (133 mM final), 100 μL of S-NHS (33.3 mM final), for 7 minutes. […] Anti-MS4A4A hydridoma supernatant or purified anti-MS4A4A antibodies were diluted in HBS-EP+ buffer (Teknova Cat # H8022) and then printed as duplicates with a 20 minute and a 5-minute print from the same sample solution.
(§3) These were then injected on the chip for five minutes, followed by a seven-minute dissociation period at 8 uL per second in a non-regenerative kinetic series. Duplicate measurements for each anti-MS4A4A antibody were taken to ensure reproducibility. Association rates (Kon) and dissociation rates (Koff) were calculated using a single one-to-one Langmuir binding model. The equilibrium dissociation constant (KD) was calculated as the ration of Koff/Kon.

The target of test [4] is T4, human MS4A6A ECL2 peptide (amino acid residues 138-185) (human).
T4 peptide: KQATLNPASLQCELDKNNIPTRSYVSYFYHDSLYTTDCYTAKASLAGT
Kind of test: array SPR. The protocol:
as §2, §3

Test [5] concerns the target T5, human MS4A4A (human, UniProt Q96JQ5 1-239). Kind of test: FACS, HEK293, supernatant. The protocol: (§4) Positive clones identified above were expanded and then rescreened for specificity against HEK293 cells overexpressing human MS4A4A or cyno MS4A4A and parental HEK293 cells. These experiments were performed using supernatants from hybridoma clones which had undergone further expansion after initial selection. Briefly, previously prepared, cryopreserved transiently-transfected cells were labeled with LIVE/DEAD Fixable Aqua Dead Cell Stain Kit (ThermoFisher Scientific L34957) on ice for 30 minutes. After a wash with PBS, 2×10⁵ cells were aliquoted per well in 96-well U-bottom plates and incubated with 50 μl of culture supernatant on ice for 30 minutes. […] Following this secondary incubation, the cells were again washed twice with ice-cold FACS buffer and resuspended in a final volume of 200 μl of FACS buffer. Analysis was performed on a FACS Canto system (BD Biosciences), with sort gates drawn to exclude dead (Aqua-positive) cells. Positive clones (fold change of 1.8 or greater) were carried forward for further testing.

Test [6] concerns the target T6, cynomolgus (cyno) MS4A4A (cynomolgus).
T6 construct: also called cy4A; Cyno 4A
Kind of test: FACS, HEK293, supernatant. The procedure: as §4

Test [7] deals with T1, human MS4A4A ECL1 peptide (amino acid …). Kind of test: ELISA, hybridoma supernatant. The procedure:
as §1, with “1-10 μg/ml” for “2 or 10 m/ml”, “C3041)” for “Cat#C3041)”, “[…]).” for “μl/well).”, “TMBW-1000-01)” for “Cat#TMBW-1000-01)”, “BSTP-1000-01).” for “Cat#BSTP-1000-01).”, “650 nm” for “650nm”

Test [8] has as its target T7, BSA-conjugated human MS4A4A ECL2 peptide (amino acid residues 159-179) (human, conjugated to BSA (site not stated)).
T7 construct: also called MS4A4A-ECL2 BSA conjugated peptide; BSA-MS4A4A-ELC2 peptide
T7 peptide: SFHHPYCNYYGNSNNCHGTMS
Kind of test: ELISA, hybridoma supernatant. The procedure: as §1, with “1-10 μg/ml” for “2 or 10 m/ml”, “C3041)” for “Cat#C3041)”, “[…]).” for “μl/well).”, “TMBW-1000-01)” for “Cat#TMBW-1000-01)”, “BSTP-1000-01).” for “Cat#BSTP-1000-01).”, “650 nm” for “650nm”

Test [9] concerns the target T5, human MS4A4A. The test is described as follows: functional affinity, FACS titration on stably transfected 300.19 cells. The procedure: (§5) Determination of functional affinity/KD was carried out as follows. A constant number of 300.19 cells stably transfected with constructs expressing MS4A4A were blocked against non-specific binding, and then incubated with anti-MS4A4A antibodies at various concentrations predetermined to span from saturation-binding to no antibodies present for three hours on ice so the reaction is allowed to achieve near equilibrium. The cells were then washed and incubated with fluorophore-conjugated secondary antibodies, washed again, and signal determined by FACS Cantos (Becton Dickinson, Franklin Lake, N.J.). To determine functional/KD, the four-parameter dose response curve with variable slope was fitted onto the data by Prism (Graphpad, San Diego, Calif.), based on the multiple independent binding site model described by Drake and Klakamp, supra.

For test [10], the target named is T6, cynomolgus (cyno) MS4A4A. The description is as above. The protocol: as §5

B1: anti-MS4A4A antibody 4A-25 (antibody, V domains shown)
VH: QVTLKESGPGILQPSQTLSLTCSFSGFSLRTSDMGVGWVRQPSGEGLEWLADIWWDDNKYYNPSLKSRLTISKDTSSNQVFLKITSVDTADTATYYCARRANYGNLFDYWGQGTAVTVSS
VL: DIVMTQSLKFMSTSVGDRVSITCKASQNVRSAVAWYQQKPGQSPKVLIYWASNRHTGVPDRFTGSGSGTDFTLTISNVQSEDLADYFCLQHWNYLTFGSGTKLEIK
notes: purified murine antibody
As to B1, the values for the binding result in test [1] and in test [2] were “no binding” and “binds”, respectively.

B2: anti-MS4A4A antibody 4A-5 (antibody, V domains shown)
VH: EVKVEESGGGLVQPGGSMKLSCAASGFTFSDAWMDWVRQSPEKGLEWVAEIRSKTNSHATYYAESVKGRFTISRDDSKSSVYLQMNSLRAEDTGIYYCTVDYYGIFWGQGTLVTVSS
VL: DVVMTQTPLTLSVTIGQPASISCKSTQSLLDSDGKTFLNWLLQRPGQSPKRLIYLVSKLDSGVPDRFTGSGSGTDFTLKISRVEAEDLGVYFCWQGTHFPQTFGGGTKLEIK
notes: murine hybridoma antibody
In the case of B2, the binding result is listed as “no binding (tested: 2000 nM)” in [3], “no binding (tested: 2000 nM)” in test [4], “no binding” in [7] and “no binding” in [8]. In addition, the “Human 4A:parental cell ratio” value with human MS4A4A [5] turned out to be 27.3 ratio. Moreover, the “Cyno 4A:parental cell ratio” value with cynomolgus (cyno) MS4A4A [6] is 8.49 ratio.

B3: anti-MS4A4A antibody 4A-17 (antibody, V domains shown)
VH: QVQLQQSAAELMKPGASVKLSCKATGYTFTGYWIEWLKQRPGHGLEWIGEILPGIGNTKYSEKFKGKATFTADTSSNTAYMQLSSLTTEDSAIYYCARSLLRAMDYWGQGTSVTVSS
VL: QIVLTQSPAIMSASPGEKVTMTCSAISSISYMHWYQLKPGTSPKRWIYDTSKLASGVPARFSGSGSGTSYSLTISSMEAEDAATYYCHQRSSYPYTFGGGTKLEIK
notes: murine hybridoma antibody
As to B3, the binding result in test [3] was “no binding (tested: 2000 nM)”; in test [4], “no binding (tested: 2000 nM)”; in test [7], “no binding”; in test [8], “no binding”. Also, the “Human 4A:parental cell ratio” value with human MS4A4A [5] amounted to 4.83 ratio. Moreover, in the test with cynomolgus (cyno) MS4A4A [6], the “Cyno 4A:parental cell ratio” value stood at 1.67 ratio.

B4: anti-MS4A4A antibody 4A-18, huIgG1 chimera (antibody, V domains shown)
VH: QVQLQQPGTELVKPGASVKLSCKASGYTFTSYWIHWVKQRPGQGLEWIGNINPTNGGTNYNERFKSKATLTVDKSSSTAYMQLSSLTSEDSAVYYCARAYYYGSSLFAYWGQGTLVTVSA
VL: DIVMTQSQKFMSTTVGDRVSITCKASQNVGTAVAWSQQKPGQSPKLLIYSASYRHTGVPDRFTGSGSGTDFTLTITNMQSEDLADYFCQQYSTYPWTFGGGTKLEIK
notes: also called 4A-18 (hIgG1)
On to B4, for which the figures for the Kd with human MS4A4A [9] and with cynomolgus (cyno) MS4A4A [10] were 0.84 nM and 3.1 nM, respectively.

B5: anti-MS4A4A antibody 4A-18 (murine) (antibody, IgG1, V domains shown)
VH: B4 VH
VL: B4 VL
notes: murine hybridoma antibody, msIgG1; also called 4A-18 (msIgG1)
Consider B5, for which the binding result in test [3] is “no binding (tested: 2000 nM)”; in test [4], “no binding (tested: 2000 nM)”; in test [1], “no binding”; in test [8] it was “no binding”. The Kd in the test with human MS4A4A [9] was 1.6 nM.

B6: anti-MS4A4A antibody 4A-202 (murine) (antibody, V domains shown)
VH: QVQLQQSGAELARPGASVKLSCKASGYTFTNYWMQWVKQRPGQGLEWIGATHPGHGDTRYTQKFKGKATLSADKSSSTAYMQLSNLASEDSAVYYCAREEVYYGFRSYWYFDVWGAGTTVTVSS
VL: not shown
notes: murine hybridoma antibody
With B6, the binding result in test [1] is recorded as “no binding”; in test [2], “binds”.

B7: anti-MS4A4A antibody 4A-202, huIgG1 chimera (antibody, V domains shown)
VH: B6 VH
VL: not shown
Regarding B7, the Kd with human MS4A4A [9] worked out at 3.5 nM; in the test with cynomolgus (cyno) MS4A4A [10], 1.8 nM.

B8: anti-MS4A4A antibody 4A-21, huIgG1 chimera (antibody, V domains shown)
VH: QIQLVQSGPELKKPGETVKISCKASGYIFTSYGLSWVKQTPGKGLKWMGWINTYSGVPTYANDFKGRFAFSLETSASTTYLRINNLKNDDTATYFCARSLVDYWGQGTPLTVSS
VL: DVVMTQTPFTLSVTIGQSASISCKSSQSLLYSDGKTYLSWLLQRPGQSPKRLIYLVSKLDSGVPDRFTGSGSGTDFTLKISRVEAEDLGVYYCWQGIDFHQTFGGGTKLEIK
notes: also called 4A-21 (hIgG1)
Turning to B8, the Kd with cynomolgus (cyno) MS4A4A [10] amounted to 7.6 nM. This lies in the single-digit nanomolar range.

B9: anti-MS4A4A antibody 4A-12 (antibody, V domains shown)
VH: QVQLQQSGAELAQPGASVKMSCKASGYTFSSYWMYWVKQGPGQGLEWIGYINPGTGYTEYNQKFKDKATLTADKSSSTAYMQLSSLTSEDSAVYYCARFYYGSPYYYAMDYWGQGTSVTVSS
VL: DIVMTQSQKFMSTSVGDRVTFTCKASQSVDTDVAWYQQKPGQSPKLLIYSASNRYTGVPDRFTGSGSGTDFTLTISNVQSEDLADYFCHQYNSYPLTFGAGTKLELK
notes: murine hybridoma antibody
As for B9, the binding result in test [3] was “no binding (tested: 2000 nM)”; in test [4], “no binding (tested: 2000 nM)”; in test [7] it was “no binding”; in test [8], “no binding”. Moreover, the “Human 4A:parental cell ratio” value with human MS4A4A [5] amounted to 9.58 ratio. In addition, the “Cyno 4A:parental cell ratio” value with cynomolgus (cyno) MS4A4A [6] was found to be 3.96 ratio.
